The source of these data is PMC8960874 (2022).

Usually koff stands for the rate constant with which the complex falls apart. The Kd is the constant that tells how readily two partners part at equilibrium. Read a low Kd as higher affinity.

The target of test [1] is T1, SARS-CoV-2 spike receptor binding domain (RBD) protein with a C-terminal hexahistidine tag (SARS-CoV-2, UniProt P0DTC2 319-541). Briefly: BLI.
The target in test [2] is T1, SARS-CoV-2 spike receptor binding …. Briefly: BLI. The source holds these as a separate data set. Background: In BLI a coated tip is dipped into the sample, and binding shifts an interference pattern.

B1: Clone 6 mAb (human IgG1 with mouse variable regions) (antibody, V domains shown)
VH: QVQLQQSAAELARPGASVKMSCKASGYTFTSYTMHWVKQRPGQGLEWIGYINPTSGYTEYNQNFKDKTTLTADKSSSTAYMQLNSLTSEDSAVYYCAREGHRVGPAYWGQGTLVTVSA
VL: not shown
B1 yielded a koff in test [1] of 3.65e-07 s⁻¹. The same molecule displayed an equilibrium dissociation constant (Kd) in test [2] of 1.89 pM.

B2: Clone 2 mAb (human IgG1 with mouse variable regions) (antibody, V domains shown)
VH: EVQLQQSGPELVKPGASVKISCKASGYSFTGYSMNWMKQSPEKSLEWIGEINPSTGGTTDNQKFKAKATLTVDKSSSTAYMQLKSLTSEDSAVYYCARSRGDYWGQGTSVTVSS
VL: DIVLTQSPASLAVSLGQRATISCRASESVEYYGTSLMQWYQQKPGQPPKVLIYAASNVESGVPARFSGSGSGTDFSLNIHPVEEDDIAMYFCQQSRKVPWTFGGGTKLEIK
B2 showed an off-rate (koff) in test [1] of 1.49e-07 s⁻¹. This molecule also registered a Kd in test [2] of 1.58 pM.
